Results: patent publication US20040009502A1 (published 2004)

Assays:
[1] = target: T1, mLATS2N96 fused to the GAL4 DNA binding domain (pGBKT7-mLATS2N96) (mouse, UniProt P04386 1-147 (Saccharomyces cerevisiae entry)); experiment: yeast two-hybrid (growth on quadruple dropout plates)
T1 construct: Made by removing the Pst I fragment from pGBKT7-mLATS2b; also called N-terminal 96 amino acids of mLATS2/2b

[2] = target: T2, mLATS2b fused to the GAL4 DNA binding domain (pGBKT7-mLATS2b) (mouse, UniProt P04386 1-147 (Saccharomyces cerevisiae entry)); experiment: yeast two-hybrid
T2 construct: expressed in yeast AH109; also called clone 3-1; mLATS2/2b

[3] = target: T2, mLATS2b fused to the GAL4 DNA binding …; experiment: yeast two-hybrid (growth on quadruple dropout plates)
[4] = target: T3, mLATS2 fused to the GAL4 DNA binding domain (pGBKT7-mLATS2) (mouse, UniProt P04386 1-147; Q7TSJ6 1-1042); experiment: as above
T3 construct: Made by inserting the Bsm I-Xho I fragment of pcDNA3-mLATS2 into pGBKT7-mLATS2b; also called mLATS2/2b

| Binder | binding result [1] | binding result [2] | binding result [3] | binding result [4] |
| --- | --- | --- | --- | --- |
| mouse Replication Protein Binding Trans-Activator (mRBT1) fused to the GAL4 activation domain (pGADT7-mRBT1) (other, UniProt Q9ERC3 1-197, looked up, not shown: large carriers) MGGLKRKHSDLEEEEEEEKWDWSPTALRSYQQALLRISLDKVQRSLGPRAPSLRRHVLIHNTLQQLQAAIRLAPAPALPPEPLFLGEEDFSLSTTIGSILRELDTSMDEMEPPLNPAASSSPQNEIVSQADPVFLEALSSRYLGDSGLDDFFLDIDTSAVEKDVALPPPEPPHSLFCSPGSWEWNELDHIMEIILGS | no binding | binds |  |  |
| mRBT1C76 fused to the GAL4 activation domain (pGADT7-mRBT1C76) (other, UniProt P04386 768-881, looked up, PCR product encoding the C-terminal 76 amino acids of mRBT1 cloned into EcoR I and Sma I sites of pGADT7; also called C-terminal 76 amino acids of mRBT1) ANFNQSGNIADSSLSFTFTNSSNGPNLITTQTNSQALSQPIASSNVHDNFMNNEITASKIDDGNNSKPLSPGWTDQTAYNAFGITTGMFNTTTMDDVYNYLFDDEDTPPNPKKEPQNEIVSQADPVFLEALSSRYLGDSGLDDFFLDIDTSAVEKDVALPPPEPPHSLFCSPGSWEWNELDHIMEIILGS |  |  | no binding | no binding |
| mRBT1N121 fused to the GAL4 activation domain (pGADT7-mRBT1N121) (other, mouse, UniProt Q9ERC3 1-121, looked up, not shown: large carriers, Made by removing the Xho I fragment from pGADT7-mRBT1) MGGLKRKHSDLEEEEEEEKWDWSPTALRSYQQALLRISLDKVQRSLGPRAPSLRRHVLIHNTLQQLQAAIRLAPAPALPPEPLFLGEEDFSLSTTIGSILRELDTSMDEMEPPLNPAASSS | no binding |  | binds |  |
